How the values were obtained:
[1] = biological target: T1, IL-TIF (Homo sapiens, UniProt Q9GZX6); assay: SAA induction by IL-TIF in mice, inhibition by zcytor16-Fc4; format: in vivo; conditions: 3 μg IL-TIF IP with 20-100 ug zcytor16-Fc4 IP 15 minutes before
T1 sequence (Q9GZX6 13-179 limits assumed): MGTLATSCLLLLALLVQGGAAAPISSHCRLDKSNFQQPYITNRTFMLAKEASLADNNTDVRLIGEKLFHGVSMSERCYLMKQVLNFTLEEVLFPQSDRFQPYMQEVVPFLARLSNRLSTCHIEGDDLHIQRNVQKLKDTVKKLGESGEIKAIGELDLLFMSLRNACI
Method: To assess whether zcytor16 could inhibit the SAA induction by IL-TIF mice (female, C3H/HEJ, 8 weeks old; Jackson Labs, Bar Harbor, Me.) were divided into five groups of three animals each and treated by IP injection of proteins as shown in Table 15 below:
The zcytor16 injections preceded the IL-TIF injection by 15 minutes. Both protein injections were given by the intraperitoneal route. A blood sample was taken from each mouse prior to treatment, then at 2 and 6 hours after treatment. Serum was prepared from each of the samples for measurement of SAA and IL-TIF.
An ELISA was performed as described previously to determine the level of SAA in mice treated with IL-TIF and a soluble receptor for IL-TIF, zcytor16-Fc4 described herein.

[2] = biological target: T2, IL-TIF (Homo sapiens, UniProt Q9GZX6); assay: Effect of zcytor16 on IL-TIF-induced acanthosis; format: in vivo, mice; conditions: for Average Acanthosis: day 8, score 0-3
T2 construct: made in house; host or cells: BHK cells
T2 sequence (Q9GZX6 34-179): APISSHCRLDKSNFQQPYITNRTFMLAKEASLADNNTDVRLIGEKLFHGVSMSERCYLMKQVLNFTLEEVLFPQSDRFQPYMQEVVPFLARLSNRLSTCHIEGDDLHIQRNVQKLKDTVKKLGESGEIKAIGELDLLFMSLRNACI
Method: Mice (female, C3H/HEJ, 8 weeks old; Jackson Labs, Bar Harbor, Me.) were divided into eight groups of eight animals each. IL-TIF was administered by constant infusion via mini-osmotic pumps, as described in example 32a. Alzet mini-osmotic pumps (model 2001; Alza corporation Palo Alto, Calif.) were loaded under sterile conditions with IL-TIF protein (A#601F, 0.22 mL) diluted in phosphate buffered saline (pH 7.0) to a concentration within the pump of 0.22 mg/mL for group 1-2 mice, 0.45 mg/mL for group 3-4 mice, 0.9 mg/mL for group 5-6 mice, or 0 mg/mL (diluent only) for group 7-8 mice. These pumps are designed to deliver their contents at a rate of 0.5 μl per hour over a period of 14 days. Using this nominal rate of infusion, dose levels were calculated to be […] and 0 μg/day for groups 7-8. For each pair of groups at a given dose level of IL-TIF, one of the groups was injected three times (days 1, 3, and 5) with 0.1 mg of human zcytor16 Fc protein (described herein) by the interperitoneal route. The other group was injected in the same fashion with vehicle (PBS).
On day 8 of the study, mice were euthanized and an approximately 1 cm square sample of skin surrounding the pump area was collected from each mouse. The skin was fixed in 10% neutral buffered formalin. Formalin fixed samples of skin were embedded in paraffin, routinely processed, sectioned at 5 um and stained with hematoxylin and eosin. The tissues were microscopically examined in blinded fashion by an ACVP board certified veterinary pathologist. This study was scored in a different manner than the previous example. The number of layers in the epidermis, from stratum basalis to stratum granulosum, was determined Based on the results, the sections were scored as follows: O-normal (2-3 layers), 1-mild thickening (3-4 layers), 2-moderate thickening (4-6 layers) and 3-severe thickening (>6 layers).

- Average Acanthosis ([2]; pump 2.5 μg IL-TIF/day + 100 μg zcytor16 (3 injections)): 0.8
- Average Acanthosis ([2]; pump 5 μg IL-TIF/day + 100 μg zcytor16 (3 injections)): 0.6
- Average Acanthosis ([2]; pump 10 μg IL-TIF/day + 100 μg zcytor16 (3 injections)): 1.9
- Average Acanthosis ([2]; pump Vehicle + 100 μg zcytor16 (3 injections)): 0.0
B1: zcytor16-Fc4: soluble receptor for IL-TIF, zcytor16 fused to Fc4; IL-TIF antagonist (protein)
chain: TQSTHESLKPQRVQFQSRNFHNILQWQPGRALTGNSSVYFVQYKIYGQRQWKNKEDCWGTQELSCDLTSETSDIQEPYYGRVRAASAGSYSEWSMTPRFTPWWETKIDPPVMNITQVNGSLLVILHAPNLPYRYQKEKNVSIEDYYELLYRVFIINNSLEKEQKVYEGAHRAVEIEALTPHSSYCVVAEIYQPMLDRRSQRSEERCVEIPEPRSSDKTHTCPPCPAPEAEGAPSVFLFPPKPKDTLMISRTPEVTCVVVDVSHEDPEVKFNWYVDGVEVHNAKTKPREEQYNSTYRVVSVLTVLHQDWLNGKEYKCKVSNKALPSSIEKTISKAKGQPREPQVYTLPPSRDELTKNQVSLTCLVKGFYPSDIAVEWESNGQPENNYKTTPPVLDSDGSFFLYSKLTVDKSRWQQGNVFSCSVMHEALHNHYTQKSLSLSPGK
- level of SAA [1]: reduction in the level of SAA induced by IL-TIF alone to background levels
- effect on epidermal thickening ([2]; 100 μg zcytor16 (3 injections), mice treated with 5 μg IL-TIF/day): decreased the amount of epidermal thickening
